Laboratory results: the supplement of paper PMC7877785
± gives the uncertainty stated by the source.

Assay: self-splicing fitness, log relative to wild type (ln ratio); higher = more splicing; Tetrahymena group I intron in knt gene, E. coli kanamycin selection, DiMSum; sequences stand for … in CUCUCU…GGAGGGAAAAGUUAUCAGGCAUGCACCUGGUAGCUAGUCUUUAAACCAAUAGAUUGCAUCGGUUUAAAAGGCAAGACCGUCAAAUUGCGGGAAAGGGGUCAACAGCCGUUCAGUACCAAGUCUCAGGGGAAACUUUGAGAUGGCCUUGCAAAGGGUAUGGUAAUAAGCUGACGGACAUGGUCCUAACCACGCAGCCAAGUCCUAAGUCAACAGAUCUUCUGUUGAUAUGGAUGCAGUUCACAGACUAAAUGUCGGUCGGGGAAGAUGUAUUCUUCUCAUAAGAUAUAGUCGGACCUCUCCUUAAUGGGAGCUAGCGGAUGAAGUGAUGCAACACUGGAGCCGCUGGGAACUAAUUUGUAUGCGAAAGUAUAUUGAUUAGUUUUGGAGUACUCGUGGUCG
How it was run: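 Pooled colonies went to amplicon sequencing on an Illumina HiSeq 2500 after six replicate transformations. The plates were LB agar with 100 μg/mL carbenicillin, 50 μM IPTG and 0.2% rhamnose, with or without 25 μg/mL kanamycin, incubated overnight at 37°C or 30°C. The E. coli BL21(DE3) library had all eight P1ex-region intron nucleotides randomised, the intron placed in the knt kanamycin-resistance gene on pET-22b(+). DiMSum fitness is the error-weighted combination of replicate fold changes, kanamycin against none, normalised to wild type.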

Row | Sequence | self-splicing fitness (ln) (30 °C) | self-splicing fitness (ln) (37 °C)
1 | GCUUAGCAAUAUUACGGCGG | -3.5 ± 0.2 | -3.14 ± 0.26
2 | GCCUAGCAAUAUUACGUAGG | -3.69 ± 0.18 | -2.93 ± 0.25
3 | CCACAGCAAUAUUACGAGCA | -3.6 ± 0.18 | -2.89 ± 0.19
4 | CGAGAGCAAUAUUACGGUUU | -3.15 ± 0.15 | -2.58 ± 0.21
5 | GAACAGCAAUAUUACGCUCG | -0.797 ± 0.1 | -0.128 ± 0.15
6 | CACAAGCAAUAUUACGGCAC | -2.95 ± 0.19 | -1.56 ± 0.17
7 | AUUAAGCAAUAUUACGGACU | 0.271 ± 0.11 | 0.324 ± 0.15
8 | CGCCAGCAAUAUUACGGGAG | -1.92 ± 0.072 | -1.38 ± 0.094
9 | UCCUAGCAAUAUUACGGGUA | -0.468 ± 0.088 | -0.134 ± 0.12
10 | ACAAAGCAAUAUUACGAGGG | -3.39 ± 0.11 | -2.14 ± 0.11
11 | UAUGAGCAAUAUUACGACAA | -2.78 ± 0.29 | -0.6 ± 0.18
12 | UUGGAGCAAUAUUACGAAUA |  | -2.1 ± 0.46
13 | GGGGAGCAAUAUUACGUCUC | -1.64 ± 0.4 | 
14 | GGAGAGCAAUAUUACGAUUU | -1.65 ± 0.24 | 0.185 ± 0.43
15 | CGUGAGCAAUAUUACGAUCG | -3.02 ± 0.27 | 0.475 ± 0.25
16 | UAUAAGCAAUAUUACGAUGU | -2.49 ± 0.11 | -1.71 ± 0.12
17 | CCCGAGCAAUAUUACGGAAG | -3.91 ± 0.24 | -2.29 ± 0.15
18 | UACGAGCAAUAUUACGUUAU | -3.45 ± 0.12 | -2.24 ± 0.099
19 | GCGGAGCAAUAUUACGCUGA | -3.01 ± 0.35 | 
20 | UUACAGCAAUAUUACGACGU | -3.61 ± 0.31 | -3.23 ± 0.4
21 | ACGAAGCAAUAUUACGAAUU | -3.63 ± 0.17 | -2.37 ± 0.15
22 | UUUCAGCAAUAUUACGGUAG | -0.521 ± 0.088 | -0.526 ± 0.12
23 | AAUAAGCAAUAUUACGAAUU | -1.93 ± 0.1 | -1.58 ± 0.12
24 | UACAAGCAAUAUUACGUGAG | -3.54 ± 0.17 | -1.91 ± 0.14
25 | CUUAAGCAAUAUUACGAGAG | -4.39 ± 0.42 | -2.48 ± 0.45

Row | Sequence | self-splicing fitness (ln) (30 °C) | self-splicing fitness (ln) (37 °C)
26 | AACUAGCAAUAUUACGCGGG | -2.78 ± 0.15 | -2.37 ± 0.19
27 | UGGAAGCAAUAUUACGGUGG | -1.42 ± 0.091 | -0.276 ± 0.11
28 | CUUUAGCAAUAUUACGCAGU | -1.8 ± 0.3 | -2.34 ± 0.49
29 | GUCGAGCAAUAUUACGAUCU | -2.87 ± 0.18 | -0.451 ± 0.12
30 | UCGGAGCAAUAUUACGGCUC | -1.81 ± 0.29 | 
31 | GACCAGCAAUAUUACGGGUA | -0.533 ± 0.058 | -0.146 ± 0.061
32 | CCGAAGCAAUAUUACGGAAA | -3.26 ± 0.26 | -3.49 ± 0.31
33 | GGUUAGCAAUAUUACGUGCC | -2 ± 0.46 | 
34 | UUCAAGCAAUAUUACGAGGG | -3.56 ± 0.23 | -1.91 ± 0.17
35 | UAAGAGCAAUAUUACGCCGC | -2.81 ± 0.41 | 
36 | GCCCAGCAAUAUUACGGGUA | -1.34 ± 0.061 | -0.511 ± 0.06
37 | GCGUAGCAAUAUUACGUCUG | -3.48 ± 0.23 | -3.38 ± 0.24
38 | CAUAAGCAAUAUUACGACUC | -3.48 ± 0.34 | -0.925 ± 0.14
39 | UCGUAGCAAUAUUACGAGUC | -3.23 ± 0.17 | -2.47 ± 0.17
40 | GCGAAGCAAUAUUACGGACU | -0.302 ± 0.12 | 0.296 ± 0.13
41 | UACAAGCAAUAUUACGUCAA | -3.18 ± 0.2 | -1.67 ± 0.13
42 | GUUUAGCAAUAUUACGGCAC | -0.0568 ± 0.4 | -0.227 ± 0.43
43 | CAUCAGCAAUAUUACGUCCG | -0.619 ± 0.059 | 0.497 ± 0.088
44 | CAGCAGCAAUAUUACGGAGA | -3.3 ± 0.31 | -3.02 ± 0.22
45 | AAAGAGCAAUAUUACGUCCA | -1.76 ± 0.33 | -1.93 ± 0.36
46 | CCCCAGCAAUAUUACGCUCC | -3.09 ± 0.36 | -2.91 ± 0.47
47 | AUCCAGCAAUAUUACGGGAC | -4.17 ± 0.27 | -3.04 ± 0.2
48 | AGGCAGCAAUAUUACGUCCA | -0.459 ± 0.051 | 0.0124 ± 0.078
49 | CAGCAGCAAUAUUACGCAGA | -2.32 ± 0.28 | -1.19 ± 0.13
50 | CGGCAGCAAUAUUACGUUGC | -3.03 ± 0.27 | -2.57 ± 0.33
